Laboratory results as given in publication PMC9860306.

Assays:
[1] = target: rituximab, galactosylated afucosylated (G2) glycoform (human); experiment: SPR; KD2 (second site)
[2] = target: rituximab, galactosylated fucosylated (G2F) glycoform (human); experiment: SPR; KD2 (second site)
[3] = target: rituximab, galactosylated afucosylated (G2) glycoform (human); experiment: SPR; KD1
[4] = target: rituximab, galactosylated fucosylated (G2F) glycoform (human); experiment: SPR; KD1

Sequence of rituximab, galactosylated fucosylated (G2F) glycoform (human) (main, as listed by the source, chain 1 of 2): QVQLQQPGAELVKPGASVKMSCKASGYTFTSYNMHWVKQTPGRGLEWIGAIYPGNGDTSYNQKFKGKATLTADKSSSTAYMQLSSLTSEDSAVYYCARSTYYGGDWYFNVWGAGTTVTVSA
Sequence of rituximab, galactosylated fucosylated (G2F) glycoform (human) (partner, as listed by the source, chain 2 of 2): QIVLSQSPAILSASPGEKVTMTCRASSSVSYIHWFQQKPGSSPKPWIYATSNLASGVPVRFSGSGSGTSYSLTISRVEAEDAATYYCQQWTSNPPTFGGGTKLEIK
Sequence of rituximab, galactosylated afucosylated (G2) glycoform (human) (main, as listed by the source, chain 1 of 2): as the sequence (main, as listed by the source, chain 1 of 2) above
Sequence of rituximab, galactosylated afucosylated (G2) glycoform (human) (partner, as listed by the source, chain 2 of 2): as the sequence (partner, as listed by the source, chain 2 of 2) above

**Q.** Which results are given for FcγRIIIA(V) tetramer?
**A.** Kd [1]: 2.3 nM; Kd [2]: 2.29 nM; Kd [3]: 29.9 nM; Kd [4]: 55.2 nM
